# From the supplement of paper PMC7877785
# ± gives the uncertainty stated by the source.
# Assay: self-splicing fitness, log relative to wild type (ln ratio); higher = more splicing; Tetrahymena group I intron in knt gene, E. coli kanamycin selection, DiMSum; sequences stand for … in CUCUCU…GGAGGGAAAAGUUAUCAGGCAUGCACCUGGUAGCUAGUCUUUAAACCAAUAGAUUGCAUCGGUUUAAAAGGCAAGACCGUCAAAUUGCGGGAAAGGGGUCAACAGCCGUUCAGUACCAAGUCUCAGGGGAAACUUUGAGAUGGCCUUGCAAAGGGUAUGGUAAUAAGCUGACGGACAUGGUCCUAACCACGCAGCCAAGUCCUAAGUCAACAGAUCUUCUGUUGAUAUGGAUGCAGUUCACAGACUAAAUGUCGGUCGGGGAAGAUGUAUUCUUCUCAUAAGAUAUAGUCGGACCUCUCCUUAAUGGGAGCUAGCGGAUGAAGUGAUGCAACACUGGAGCCGCUGGGAACUAAUUUGUAUGCGAAAGUAUAUUGAUUAGUUUUGGAGUACUCGUGGUCG
# Method in brief: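 Fitness was computed with DiMSum as the error-weighted combination of replicate fold changes, kanamycin versus none, each normalised to wild type. The library randomised all eight intron nucleotides of the P1ex region, with the intron placed in the knt kanamycin-resistance gene on pET-22b(+) in E. coli BL21(DE3). Six replicate transformations were grown overnight at 37°C or 30°C on LB agar with or without 25 μg/mL kanamycin, plus 100 μg/mL carbenicillin, 50 μM IPTG and 0.2% rhamnose. Pooled colonies were amplicon-sequenced on an Illumina HiSeq 2500.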
Sequence,self-splicing fitness (ln) (30 °C),self-splicing fitness (ln) (37 °C)
GUUAAGCAAUAUUACGGCCU,-0.808 ± 0.29,0.635 ± 0.44
ACACAGCAAUAUUACGUGGG,-3.5 ± 0.098,-1.88 ± 0.087
UUAUAGCAAUAUUACGGCUC,-2.3 ± 0.26,-0.637 ± 0.26
CUAGAGCAAUAUUACGCUGC,-3.8 ± 0.33,-2.33 ± 0.33
GGCGAGCAAUAUUACGUAUG,-1.78 ± 0.14,-1.01 ± 0.14
GGCCAGCAAUAUUACGACUG,-0.744 ± 0.12,-0.348 ± 0.15
CCCAAGCAAUAUUACGUGCC,-4.01 ± 0.29,-2.97 ± 0.34
GUAAAGCAAUAUUACGCAAU,-0.316 ± 0.098,-0.564 ± 0.16
UCCCAGCAAUAUUACGGUAA,0.0812 ± 0.099,0.262 ± 0.1
UAGCAGCAAUAUUACGCACU,-0.419 ± 0.086,0.238 ± 0.1
CCGCAGCAAUAUUACGUGUG,-3.24 ± 0.11,-1.79 ± 0.094
AUUUAGCAAUAUUACGUAUU,-3 ± 0.16,-1.47 ± 0.19
GCCUAGCAAUAUUACGCGUC,-1.92 ± 0.15,-0.202 ± 0.12
UGGGAGCAAUAUUACGUAUA,–,-2.74 ± 0.35
ACGAAGCAAUAUUACGCAAG,-1.02 ± 0.14,-0.171 ± 0.18
CGACAGCAAUAUUACGGGUA,-4.49 ± 0.28,-1.49 ± 0.12
GUUAAGCAAUAUUACGUACU,-0.559 ± 0.15,-0.935 ± 0.14
UAACAGCAAUAUUACGAAUA,-0.62 ± 0.1,-0.528 ± 0.1
ACUGAGCAAUAUUACGCCAU,-2.4 ± 0.16,-2.74 ± 0.27
GGUCAGCAAUAUUACGCGGU,-3.97 ± 0.39,-2.26 ± 0.27
AAUAAGCAAUAUUACGUCCC,-0.502 ± 0.17,0.393 ± 0.26
CGUGAGCAAUAUUACGAAAA,–,-2.88 ± 0.43
UCGCAGCAAUAUUACGUAAU,-3.39 ± 0.15,-2.19 ± 0.21
AGUAAGCAAUAUUACGUCAG,–,-2.58 ± 0.3
UCGGAGCAAUAUUACGUUUC,–,-2.02 ± 0.43

Sequence,self-splicing fitness (ln) (30 °C),self-splicing fitness (ln) (37 °C)
CCCGAGCAAUAUUACGUACU,-3.49 ± 0.24,-1.24 ± 0.14
CCUCAGCAAUAUUACGCCAG,-3.22 ± 0.16,-0.883 ± 0.13
UGCCAGCAAUAUUACGGCGC,-3.8 ± 0.27,-3.04 ± 0.23
ACGAAGCAAUAUUACGGUCC,-1.92 ± 0.21,-0.717 ± 0.21
AGUCAGCAAUAUUACGGGCC,-2.98 ± 0.28,-2.4 ± 0.35
UAGGAGCAAUAUUACGAUCU,-3.09 ± 0.4,–
AGGCAGCAAUAUUACGGCUA,-0.132 ± 0.069,-0.399 ± 0.078
UGCCAGCAAUAUUACGAGUC,-3.49 ± 0.16,-1.6 ± 0.16
ACCUAGCAAUAUUACGGUAA,-2.62 ± 0.13,-1.89 ± 0.13
ACGAAGCAAUAUUACGAAUA,-2.01 ± 0.26,0.937 ± 0.18
UCCUAGCAAUAUUACGUAAC,-3.53 ± 0.24,-2.07 ± 0.27
GGAAAGCAAUAUUACGUUUC,-3.04 ± 0.21,-2.5 ± 0.28
ACUUAGCAAUAUUACGUCAU,-3.1 ± 0.2,-1.56 ± 0.17
UAUCAGCAAUAUUACGUCUC,-2.46 ± 0.24,-1.13 ± 0.24
AGUUAGCAAUAUUACGCUGG,-3.07 ± 0.22,–
UCGAAGCAAUAUUACGGUGU,-2.05 ± 0.094,-1.62 ± 0.15
CCCUAGCAAUAUUACGGUAA,-2.69 ± 0.21,-3.02 ± 0.32
CGGUAGCAAUAUUACGGCUA,-1.59 ± 0.2,-2.01 ± 0.28
ACGAAGCAAUAUUACGCUGG,-1.07 ± 0.098,-0.428 ± 0.11
GGGUAGCAAUAUUACGUGAC,-2.07 ± 0.17,-2.27 ± 0.26
AUCGAGCAAUAUUACGCAGA,-3.09 ± 0.18,-2.46 ± 0.16
CUACAGCAAUAUUACGGGUU,-3.18 ± 0.11,-2.94 ± 0.12
UCUGAGCAAUAUUACGUCGU,-3.79 ± 0.29,-1.91 ± 0.25
UUUUAGCAAUAUUACGCUAG,-3.18 ± 0.34,-1.7 ± 0.35
GCCUAGCAAUAUUACGAUGC,-1.01 ± 0.081,0.0478 ± 0.13

Sequence,self-splicing fitness (ln) (30 °C),self-splicing fitness (ln) (37 °C)
AACAAGCAAUAUUACGCUGG,-2.25 ± 0.081,-1.04 ± 0.1
GCCAAGCAAUAUUACGUACU,-1.15 ± 0.098,-0.739 ± 0.12
UCCCAGCAAUAUUACGACGC,-2.81 ± 0.19,-0.519 ± 0.23
UAUUAGCAAUAUUACGGAGA,-2.09 ± 0.25,-2.18 ± 0.32
AGGCAGCAAUAUUACGUCCU,-3.02 ± 0.26,-1.29 ± 0.37
GCCCAGCAAUAUUACGUCGU,-0.113 ± 0.066,0.0609 ± 0.072
GGUAAGCAAUAUUACGUAGC,-0.417 ± 0.41,–
AUGCAGCAAUAUUACGUCCG,-2.16 ± 0.11,-1.27 ± 0.14
CGGGAGCAAUAUUACGCCGG,-2.87 ± 0.46,-1.81 ± 0.34
AACCAGCAAUAUUACGUAGC,-2.7 ± 0.089,-2.17 ± 0.11
UCUCAGCAAUAUUACGGUUU,-1.91 ± 0.082,-0.695 ± 0.081
CAAUAGCAAUAUUACGCUGA,-3.11 ± 0.22,-1.85 ± 0.16
ACGCAGCAAUAUUACGAUCU,-0.427 ± 0.063,0.356 ± 0.091
GGUAAGCAAUAUUACGCACA,-0.755 ± 0.12,0.101 ± 0.15
CUUAAGCAAUAUUACGGAUU,-3.94 ± 0.32,-3.41 ± 0.47
AAUAAGCAAUAUUACGGACG,-0.851 ± 0.15,-0.397 ± 0.15
UAACAGCAAUAUUACGGGAU,-3.08 ± 0.15,-2.43 ± 0.16
AAGGAGCAAUAUUACGCAAG,-1.2 ± 0.38,-1.45 ± 0.49
CCGCAGCAAUAUUACGACUA,-3.8 ± 0.34,-3.46 ± 0.29
AAUCAGCAAUAUUACGCGGU,-2.35 ± 0.12,-1.14 ± 0.14
CGUCAGCAAUAUUACGCCGU,-2.49 ± 0.12,0.143 ± 0.11
UAUGAGCAAUAUUACGUUGG,-4.07 ± 0.3,-2.24 ± 0.22
GGCAAGCAAUAUUACGCCCA,-1.95 ± 0.15,-0.268 ± 0.12
CUGCAGCAAUAUUACGCAUC,–,-2.46 ± 0.3
ACUUAGCAAUAUUACGGUAG,-3.35 ± 0.23,-1.83 ± 0.23

Sequence,self-splicing fitness (ln) (30 °C),self-splicing fitness (ln) (37 °C)
AGCGAGCAAUAUUACGUCGU,-3.82 ± 0.43,-2.18 ± 0.36
GCUAAGCAAUAUUACGAUGG,-0.808 ± 0.072,-0.4 ± 0.098
UUUUAGCAAUAUUACGCCCA,-0.313 ± 0.22,0.00602 ± 0.28
GUCUAGCAAUAUUACGGUAA,-1.67 ± 0.11,-0.172 ± 0.11
UAAGAGCAAUAUUACGCAAA,-2.38 ± 0.21,-2.44 ± 0.21
GCCGAGCAAUAUUACGAUAU,-2.51 ± 0.12,-1.46 ± 0.11
UUAUAGCAAUAUUACGUUCA,-0.931 ± 0.15,0.00672 ± 0.15
GCCUAGCAAUAUUACGAAGU,-0.618 ± 0.1,-0.808 ± 0.12
AUCUAGCAAUAUUACGCCCC,-0.911 ± 0.15,0.223 ± 0.22
CUGUAGCAAUAUUACGAAAG,-1.61 ± 0.1,-0.788 ± 0.14
UGUCAGCAAUAUUACGGGAG,-2.78 ± 0.17,-1.68 ± 0.14
GCCGAGCAAUAUUACGUCAC,–,-1.57 ± 0.24
GUCAAGCAAUAUUACGAAAG,-3.72 ± 0.4,-1.39 ± 0.49
AUUUAGCAAUAUUACGACCU,0.0405 ± 0.29,0.114 ± 0.29
UGUUAGCAAUAUUACGGAAU,-0.534 ± 0.34,-1.91 ± 0.38
CACGAGCAAUAUUACGACUG,-2.46 ± 0.1,-0.773 ± 0.12
ACCGAGCAAUAUUACGGUGC,-2.97 ± 0.21,-3.33 ± 0.37
AACAAGCAAUAUUACGUUAU,-3.49 ± 0.16,-2.13 ± 0.12
GAAGAGCAAUAUUACGGCGC,-1.12 ± 0.16,-0.427 ± 0.16
ACACAGCAAUAUUACGUGUC,-3.6 ± 0.12,-3.69 ± 0.2
UAGGAGCAAUAUUACGUAUA,-2.34 ± 0.21,-0.936 ± 0.17
AUUAAGCAAUAUUACGACCC,-1.2 ± 0.35,–
GGAAAGCAAUAUUACGUUUU,-3.05 ± 0.14,-2.18 ± 0.18
